The record followed here is article PMC4423211 (2015).

Assay [1] addresses IL-1RAcP-ECD-Fc, wild type (mouse) (UniProt Q61730). As to the kind of experiment: SPR; equilibrium; Biacore T200, 25 °C, 10 mM Hepes (pH 7.9), 150 mM NaCl, 0.05% Tween-20; IL-1RAcP-ECD-Fc captured (about 700 RU) by anti-Fc antibodies immobilised on a CM5 chip; PTPδ Ig1–Fn1 variants or mutants injected as analytes, 15.6 to 4,000 nM.
Assay [2] has as its target IL1RAPL1-ECD-His6, wild type (mouse) (UniProt P59823). As to the kind of experiment: SPR; equilibrium; Biacore T200, 25 °C, 10 mM Hepes (pH 7.9), 150 mM NaCl, 0.05% Tween-20; IL1RAPL1-ECD-His6 amine-coupled on a CM5 chip (about 2,000 RU); PTPδ Ig1–Fn1 variants or mutants injected as analytes, 15.6 to 4,000 nM.
For assay [3] the target is unchanged.
Assay [4] concerns the target T1, IL1RAP (Mus musculus (Mouse), UniProt Q61730).
T1 chain: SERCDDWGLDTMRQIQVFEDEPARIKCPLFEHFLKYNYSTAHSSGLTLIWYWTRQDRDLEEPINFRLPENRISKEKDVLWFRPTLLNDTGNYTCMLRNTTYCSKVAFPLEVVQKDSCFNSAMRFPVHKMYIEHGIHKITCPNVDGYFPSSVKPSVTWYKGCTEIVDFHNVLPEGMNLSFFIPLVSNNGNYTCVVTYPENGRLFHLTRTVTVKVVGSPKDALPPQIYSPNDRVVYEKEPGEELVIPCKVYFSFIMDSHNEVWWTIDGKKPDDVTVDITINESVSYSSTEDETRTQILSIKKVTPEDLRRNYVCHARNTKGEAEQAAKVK
As to the kind of experiment: SPR equilibrium 25C, PTPRD Ig1-Fn1 analyte.

For assay [5], the target named is T2, IL1RAPL1 (Mus musculus (Mouse), UniProt P59823).
T2 chain: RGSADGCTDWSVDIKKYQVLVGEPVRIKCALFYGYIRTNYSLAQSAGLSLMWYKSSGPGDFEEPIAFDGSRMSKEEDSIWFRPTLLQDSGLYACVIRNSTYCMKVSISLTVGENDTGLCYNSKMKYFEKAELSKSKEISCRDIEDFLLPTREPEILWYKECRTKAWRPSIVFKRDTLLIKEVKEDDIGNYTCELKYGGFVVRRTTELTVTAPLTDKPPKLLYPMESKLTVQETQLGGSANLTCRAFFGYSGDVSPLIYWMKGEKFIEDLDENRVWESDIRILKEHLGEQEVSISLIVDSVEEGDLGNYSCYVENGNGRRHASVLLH
As to the kind of experiment: SPR equilibrium 25C, PTPRD Ig1-Fn1 analyte.

Chain of IL1RAPL1-ECD-His6, wild type (mouse) (P59823 19-352): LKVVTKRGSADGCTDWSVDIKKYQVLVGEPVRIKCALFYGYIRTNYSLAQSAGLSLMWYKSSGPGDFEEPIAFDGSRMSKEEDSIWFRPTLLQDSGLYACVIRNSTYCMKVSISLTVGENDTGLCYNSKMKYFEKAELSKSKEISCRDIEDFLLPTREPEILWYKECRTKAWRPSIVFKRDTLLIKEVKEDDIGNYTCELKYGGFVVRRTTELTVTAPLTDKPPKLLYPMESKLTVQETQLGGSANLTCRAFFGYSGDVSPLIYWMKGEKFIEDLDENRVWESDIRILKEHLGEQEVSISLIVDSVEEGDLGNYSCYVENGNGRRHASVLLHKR

Molecule “PTPδ Ig1–Fn1 splicing variant meA6/− (domain or fragment)” gave a Kd in assay [1] of 2300 nM.
The same measure, in the same setting: in the case of “PTPδ Ig1–Fn1 splicing variant meA3/− (domain or fragment)” it was 2800 nM; in that of “PTPδ Ig1–Fn1 splicing variant meA3/+ (domain or fragment)”, 510 nM.
The same measure, in the same setting: in the case of “PTPδ Ig1–Fn1 splicing variant −/− (lacking both meA and meB) (domain or fragment)” it was 2400 nM.
On to PTPδ Ig1–Fn1 Y273A (domain or fragment), for which, in assay [2], the Kd amounted to 860 nM.
The molecule “PTPδ Ig1–Fn1 splicing variant −/+ (no meA, with meB) (domain or fragment)” showed a Kd in assay [1] of 2200 nM.
With PTPδ Ig1–Fn1 R196A (domain or fragment), the Kd in assay [1] was 890 nM; in assay [2] it was 1700 nM.
In the same order, the values of “PTPδ Ig1–Fn1 splicing variant meA6/+ (domain or fragment)” are 730 nM and 810 nM.
Take PTPδ Ig1–Fn1 R75A (domain or fragment): the synaptogenic (postsynapse-inducing) activity: accumulation of Shank2 in cortical neurons around magnetic beads conjugated with PTPδ-ECD-Fc R75A, against wild-type PTPδ-ECD-Fc in assay [3] turned out to be 7%. Besides, the figures for the Kd in assay [1] and in assay [2] were 1100 nM and 2800 nM, respectively.
In the case of PTPδ Ig1–Fn1 E286A (domain or fragment), the Kd in assay [1] turned out to be 5300 nM.
For “PTPδ Ig1–Fn1, meB replaced by Gly-Ser-Ser-Gly (domain or fragment)”, the Kd in assay [1] stood at 640 nM; in assay [2], 140 nM.
In the same order, the values of “PTPδ Ig1–Fn1 splicing variant meA9/− (domain or fragment)” are 2000 nM and 800 nM.
In the same order, the values of “PTPδ Ig1–Fn1, meB replaced by Gln-Leu-Glu-Gln (domain or fragment)” are 910 nM and 160 nM.
For “PTPδ Ig1–Fn1, meB replaced by two tandem units of meB (domain or fragment)”, the results for the dissociation constant (Kd) in assay [1] and in assay [2] were 1500 nM and 150 nM, respectively.
For “PTPδ Ig1–Fn1, meB replaced by three tandem units of meB (domain or fragment)”, the Kd in assay [1] is 3800 nM; in assay [2] it was 420 nM.

B1: PTPRD_A6B0 (protein)
chain: ETPPRFTRTPVDQTGVSGGVASFICQATGDPRPKIVWNKKGKKVSNQRFEVIEFDDGSGSVLRIQPLRTPRDEAIYECVASNNVGEISVSTRLTVLREDQIPRGFPTIDMGPQLKVVERTRTATMLCAASGNPDPEITWFKDFLPVDTSNNNGRIKQLRSGGTPIRGALQIEQSEESDQGKYECVATNSAGTRYSAPANLYVRVRRVPPRFSIPPTNHEIMPGGSVNITCVAVGSPMPYVKWMLGAEDLTPEDDMPIGRNVLELNDVRQSANYTCVAMSTLGVIEAIAQITVKA
As for B1, the Kd is 2300 nM in assay [4] and more than 4000 nM in assay [5].

B2: PTPRD_A0B1 (protein)
chain: ETPPRFTRTPVDQTGVSGGVASFICQATGDPRPKIVWNKKGKKVSNQRFEVIEFDDGSGSVLRIQPLRTPRDEAIYECVASNNVGEISVSTRLTVLREDQIPRGFPTIDMGPQLKVVERTRTATMLCAASGNPDPEITWFKDFLPVDTSNNNGRIKQLRSGALQIEQSEESDQGKYECVATNSAGTRYSAPANLYVRELREVRRVPPRFSIPPTNHEIMPGGSVNITCVAVGSPMPYVKWMLGAEDLTPEDDMPIGRNVLELNDVRQSANYTCVAMSTLGVIEAIAQITVKA
Regarding B2, the dissociation constant Kd is 2200 nM in assay [4] and more than 4000 nM in assay [5].

B3: PTPRD_A6B1 (protein)
chain: ETPPRFTRTPVDQTGVSGGVASFICQATGDPRPKIVWNKKGKKVSNQRFEVIEFDDGSGSVLRIQPLRTPRDEAIYECVASNNVGEISVSTRLTVLREDQIPRGFPTIDMGPQLKVVERTRTATMLCAASGNPDPEITWFKDFLPVDTSNNNGRIKQLRSGGTPIRGALQIEQSEESDQGKYECVATNSAGTRYSAPANLYVRELREVRRVPPRFSIPPTNHEIMPGGSVNITCVAVGSPMPYVKWMLGAEDLTPEDDMPIGRNVLELNDVRQSANYTCVAMSTLGVIEAIAQITVKA
As for B3, the Kd in assay [4] amounted to 730 nM; in assay [5], 810 nM.

B4: PTPRD_A9B1 (protein)
chain: ETPPRFTRTPVDQTGVSGGVASFICQATGDPRPKIVWNKKGKKVSNQRFEVIEFDDGSGSVLRIQPLRTPRDEAIYECVASNNVGEISVSTRLTVLREDQIPRGFPTIDMGPQLKVVERTRTATMLCAASGNPDPEITWFKDFLPVDTSNNNGRIKQLRSESIGGTPIRGALQIEQSEESDQGKYECVATNSAGTRYSAPANLYVRELREVRRVPPRFSIPPTNHEIMPGGSVNITCVAVGSPMPYVKWMLGAEDLTPEDDMPIGRNVLELNDVRQSANYTCVAMSTLGVIEAIAQITVKA
As to B4, the dissociation constant (Kd) in assay [4] was 680 nM; in assay [5] it was 150 nM.

B5: PTPRD_A9B0 (protein)
chain: ETPPRFTRTPVDQTGVSGGVASFICQATGDPRPKIVWNKKGKKVSNQRFEVIEFDDGSGSVLRIQPLRTPRDEAIYECVASNNVGEISVSTRLTVLREDQIPRGFPTIDMGPQLKVVERTRTATMLCAASGNPDPEITWFKDFLPVDTSNNNGRIKQLRSESIGGTPIRGALQIEQSEESDQGKYECVATNSAGTRYSAPANLYVRVRRVPPRFSIPPTNHEIMPGGSVNITCVAVGSPMPYVKWMLGAEDLTPEDDMPIGRNVLELNDVRQSANYTCVAMSTLGVIEAIAQITVKA
Regarding B5, the values for the Kd in assay [4] and in assay [5] were 2000 nM and 800 nM, respectively.

B6: PTPRD_A3B1 (protein)
chain: ETPPRFTRTPVDQTGVSGGVASFICQATGDPRPKIVWNKKGKKVSNQRFEVIEFDDGSGSVLRIQPLRTPRDEAIYECVASNNVGEISVSTRLTVLREDQIPRGFPTIDMGPQLKVVERTRTATMLCAASGNPDPEITWFKDFLPVDTSNNNGRIKQLRSESIGALQIEQSEESDQGKYECVATNSAGTRYSAPANLYVRELREVRRVPPRFSIPPTNHEIMPGGSVNITCVAVGSPMPYVKWMLGAEDLTPEDDMPIGRNVLELNDVRQSANYTCVAMSTLGVIEAIAQITVKA
B6: the values for the equilibrium dissociation constant (Kd) in assay [4] and in assay [5] were 510 nM and more than 4000 nM, respectively.

B7: PTPRD_A0B0 (protein)
chain: ETPPRFTRTPVDQTGVSGGVASFICQATGDPRPKIVWNKKGKKVSNQRFEVIEFDDGSGSVLRIQPLRTPRDEAIYECVASNNVGEISVSTRLTVLREDQIPRGFPTIDMGPQLKVVERTRTATMLCAASGNPDPEITWFKDFLPVDTSNNNGRIKQLRSGALQIEQSEESDQGKYECVATNSAGTRYSAPANLYVRVRRVPPRFSIPPTNHEIMPGGSVNITCVAVGSPMPYVKWMLGAEDLTPEDDMPIGRNVLELNDVRQSANYTCVAMSTLGVIEAIAQITVKA
Regarding B7, the values for the dissociation constant (Kd) in assay [4] and in assay [5] were 2400 nM and more than 4000 nM, respectively.

B8: PTPRD_A3B0 (protein)
chain: ETPPRFTRTPVDQTGVSGGVASFICQATGDPRPKIVWNKKGKKVSNQRFEVIEFDDGSGSVLRIQPLRTPRDEAIYECVASNNVGEISVSTRLTVLREDQIPRGFPTIDMGPQLKVVERTRTATMLCAASGNPDPEITWFKDFLPVDTSNNNGRIKQLRSESIGALQIEQSEESDQGKYECVATNSAGTRYSAPANLYVRVRRVPPRFSIPPTNHEIMPGGSVNITCVAVGSPMPYVKWMLGAEDLTPEDDMPIGRNVLELNDVRQSANYTCVAMSTLGVIEAIAQITVKA
Turning to B8, the equilibrium dissociation constant (Kd) in assay [4] is 2800 nM; in assay [5] it was more than 4000 nM.
